Laboratory results as given in article PMC8298264, “Function of cofactor Akirin2 in the regulation of gene expression in model human neutrophil-like HL60 cells” (Bioscience Reports, 2021).

B1: sp¦O43390¦HNRPR_HUMAN (protein, UniProt O43390 2-633, looked up)
Heterogeneous nuclear …: ANQVNGNAVQLKEEEEPMDTSSVTHTEHYKTLIEAGLPQKVAERLDEIFQTGLVAYVDLDERAIDALREFNEEGALSVLQQFKESDLSHVQNKSAFLCGVMKTYRQREKQGSKVQESTKGPDEAKIKALLERTGYTLDVTTGQRKYGGPPPDSVYSGVQPGIGTEVFVGKIPRDLYEDELVPLFEKAGPIWDLRLMMDPLSGQNRGYAFITFCGKEAAQEAVKLCDSYEIRPGKHLGVCISVANNRLFVGSIPKNKTKENILEEFSKVTEGLVDVILYHQPDDKKKNRGFCFLEYEDHKSAAQARRRLMSGKVKVWGNVVTVEWADPVEEPDPEVMAKVKVLFVRNLATTVTEEILEKSFSEFGKLERVKKLKDYAFVHFEDRGAAVKAMDEMNGKEIEGEEIEIVLAKPPDKKRKERQAARQASRSTAYEDYYYHPPPRMPPPIRGRGRGGGRGGYGYPPDYYGYEDYYDDYYGYDYHDYRGGYEDPYYGYDDGYAVRGRGGGRGGRGAPPPPRGRGAPPPRGRAGYSQRGAPLGPPRGSRGGRGGPAQQQRGRGSRGSRGNRGGNVGGKRKADGYNQPDSKRRQTNNQQNWGSQPIAQQPLQQGGDYSGNYGYNNDNQEFYQDTYGQQWK
B2: sp¦P07954¦FUMH_HUMAN (protein, UniProt P07954 45-510, looked up)
Fumarate hydratase, …: ASQNSFRIEYDTFGELKVPNDKYYGAQTVRSTMNFKIGGVTERMPTPVIKAFGILKRAAAEVNQDYGLDPKIANAIMKAADEVAEGKLNDHFPLVVWQTGSGTQTNMNVNEVISNRAIEMLGGELGSKIPVHPNDHVNKSQSSNDTFPTAMHIAAAIEVHEVLLPGLQKLHDALDAKSKEFAQIIKIGRTHTQDAVPLTLGQEFSGYVQQVKYAMTRIKAAMPRIYELAAGGTAVGTGLNTRIGFAEKVAAKVAALTGLPFVTAPNKFEALAAHDALVELSGAMNTTACSLMKIANDIRFLGSGPRSGLGELILPENEPGSSIMPGKVNPTQCEAMTMVAAQVMGNHVAVTVGGSNGHFELNVFKPMMIKNVLHSARLLGDASVSFTENCVVGIQANTERINKLMNESLMLVTALNPHIGYDKAAKIAKTAHKNGSTLKETAIELGYLTAEQFDEWVKPKDMLGPK
B3: sp¦P18859¦ATP5J_HUMAN (protein, UniProt P18859 33-108, looked up)
ATP synthase peripheral stalk …: NKELDPIQKLFVDKIREYKSKRQTSGGPVDASSEYQQELERELFKLKQMFGNADMNTFPTFKFEDPKFEVIEKPQA
B4: sp¦Q9NVI7¦ATD3A_HUMAN (protein, UniProt Q9NVI7 2-586, looked up)
ATPase family AAA …: SWLFGINKGPKGEGAGPPPPLPPAQPGAEGGGDRGLGDRPAPKDKWSNFDPTGLERAAKAARELEHSRYAKDALNLAQMQEQTLQLEQQSKLKEYEAAVEQLKSEQIRAQAEERRKTLSEETRQHQARAQYQDKLARQRYEDQLKQQQLLNEENLRKQEESVQKQEAMRRATVEREMELRHKNEMLRVEAEARARAKAERENADIIREQIRLKAAEHRQTVLESIRTAGTLFGEGFRAFVTDWDKVTATVAGLTLLAVGVYSAKNATLVAGRFIEARLGKPSLVRETSRITVLEALRHPIQVSRRLLSRPQDALEGVVLSPSLEARVRDIAIATRNTKKNRSLYRNILMYGPPGTGKTLFAKKLALHSGMDYAIMTGGDVAPMGREGVTAMHKLFDWANTSRRGLLLFVDEADAFLRKRATEKISEDLRATLNAFLYRTGQHSNKFMLVLASNQPEQFDWAINDRINEMVHFDLPGQEERERLVRMYFDKYVLKPATEGKQRLKLAQFDYGRKCSEVARLTEGMSGREIAQLAVSWQATAYASEDGVLTEAMMDTRVQDAVQQHQQKMCWLKAEGPGRGDEPSPS
B5: sp¦Q9H2U2¦IPYR2_HUMAN (protein, UniProt Q9H2U2 33-334, looked up)
Inorganic pyrophosphatase 2, …: ALYHTEERGQPCSQNYRLFFKNVTGHYISPFHDIPLKVNSKEENGIPMKKARNDEYENLFNMIVEIPRWTNAKMEIATKEPMNPIKQYVKDGKLRYVANIFPYKGYIWNYGTLPQTWEDPHEKDKSTNCFGDNDPIDVCEIGSKILSCGEVIHVKILGILALIDEGETDWKLIAINANDPEASKFHDIDDVKKFKPGYLEATLNWFRLYKVPDGKPENQFAFNGEFKNKAFALEVIKSTHQCWKALLMKKCNGGAINCTNVQISDSPFRCTQEEARSLVESVSSSPNKESNEEEQVWHFLGK
B6: sp¦P04844¦RPN2_HUMAN (protein, UniProt P04844 23-631, looked up)
Dolichyl-diphosphooligosacchar …: LTPTHYLTKHDVERLKASLDRPFTNLESAFYSIVGLSSLGAQVPDAKKACTYIRSNLDPSNVDSLFYAAQASQALSGCEISISNETKDLLLAAVSEDSSVTQIYHAVAALSGFGLPLASQEALSALTARLSKEETVLATVQALQTASHLSQQADLRSIVEEIEDLVARLDELGGVYLQFEEGLETTALFVAATYKLMDHVGTEPSIKEDQVIQLMNAIFSKKNFESLSEAFSVASAAAVLSHNRYHVPVVVVPEGSASDTHEQAILRLQVTNVLSQPLTQATVKLEHAKSVASRATVLQKTSFTPVGDVFELNFMNVKFSSGYYDFLVEVEGDNRYIANTVELRVKISTEVGITNVDLSTVDKDQSIAPKTTRVTYPAKAKGTFIADSHQNFALFFQLVDVNTGAELTPHQTFVRLHNQKTGQEVVFVAEPDNKNVYKFELDTSERKIEFDSASGTYTLYLIIGDATLKNPILWNVADVVIKFPEEEAPSTVLSQNLFTPKQEIQHLFREPEKRPPTVVSNTFTALILSPLLLLFALWIRIGANVSNFTFAPSTIIFHLGHAAMLGLMYVYWTQLNMFQTLKYLAILGSVTFLAGNRMLAQQAVKRTAH
B7: sp¦P22102¦PUR2_HUMAN (protein, UniProt P22102 2-1010, looked up)
Trifunctional purine …: AARVLIIGSGGREHTLAWKLAQSHHVKQVLVAPGNAGTACSEKISNTAISISDHTALAQFCKEKKIEFVVVGPEAPLAAGIVGNLRSAGVQCFGPTAEAAQLESSKRFAKEFMDRHGIPTAQWKAFTKPEEACSFILSADFPALVVKASGLAAGKGVIVAKSKEEACKAVQEIMQEKAFGAAGETIVIEELLDGEEVSCLCFTDGKTVAPMPPAQDHKRLLEGDGGPNTGGMGAYCPAPQVSNDLLLKIKDTVLQRTVDGMQQEGTPYTGILYAGIMLTKNGPKVLEFNCRFGDPECQVILPLLKSDLYEVIQSTLDGLLCTSLPVWLENHTALTVVMASKGYPGDYTKGVEITGFPEAQALGLEVFHAGTALKNGKVVTHGGRVLAVTAIRENLISALEEAKKGLAAIKFEGAIYRKDVGFRAIAFLQQPRSLTYKESGVDIAAGNMLVKKIQPLAKATSRSGCKVDLGGFAGLFDLKAAGFKDPLLASGTDGVGTKLKIAQLCNKHDTIGQDLVAMCVNDILAQGAEPLFFLDYFSCGKLDLSVTEAVVAGIAKACGKAGCALLGGETAEMPDMYPPGEYDLAGFAVGAMERDQKLPHLERITEGDVVVGIASSGLHSNGFSLVRKIVAKSSLQYSSPAPDGCGDQTLGDLLLTPTRIYSHSLLPVLRSGHVKAFAHITGGGLLENIPRVLPEKLGVDLDAQTWRIPRVFSWLQQEGHLSEEEMARTFNCGVGAVLVVSKEQTEQILRDIQQHKEEAWVIGSVVARAEGSPRVKVKNLIESMQINGSVLKNGSLTNHFSFEKKKARVAVLISGTGSNLQALIDSTREPNSSAQIDIVISNKAAVAGLDKAERAGIPTRVINHKLYKNRVEFDSAIDLVLEEFSIDIVCLAGFMRILSGPFVQKWNGKMLNIHPSLLPSFKGSNAHEQALETGVTVTGCTVHFVAEDVDAGQIILQEAVPVKRGDTVATLSERVKLAEHKIFPAALQLVASGTVQLGENGKICWVKEE

System: human HL60 cells
Assay: SWATH-MS proteomics, differential protein representation, akirin2 KO vs WT HL60 cells
Format: cell-based
Details: SWATH-MS, akirin2 KO vs WT HL60 cells; sheet "Under-represented in KO"
How it was run: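 Three biological replicates per genotype; 150 µg protein FASP/trypsin digested; IDA library (3 µg digest); SWATH variable windows, 5 µg/sample, 3.6 s cycle; gradient 5–30% B 120 min then 30–60% B 15 min; 1% global FDR; TAS normalization.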

Row | Molecule | Fold Change | Log (Fold Change)
1 | B1 | 0.7565 | -0.1212
2 | B2 | 0.754 | -0.1226
3 | B3 | 0.7532 | -0.1231
4 | B4 | 0.7506 | -0.1246
5 | B5 | 0.76 | -0.1192
6 | B6 | 0.7588 | -0.1199
7 | B7 | 0.7577 | -0.1205
